Key:
[1] = target: T1, recombinant human EGFR/ErbB1/HER1 with C-terminal His tag, Cy5-labeled (human, UniProt P00533 25-645, Cy5 label (reacted with Cy5 Mono NHS Ester; sites not stated)); test: competitive TR-FRET (Eu-amivantamab/Cy5-EGFR), EC50 ratio vs Reference Material; Ex. 11 drug product, 6 months at 25 C
T1 construct: Commercial protein; also called Cy5-EGFR; Cy5-labeled EGFR antigen; not shown: C-terminal His tag
Description: (§1) In this procedure, varying concentrations of unlabeled bispecific EGFR-cMet antibody sample compete with donor fluorophore (Europium (Eu) chelate) labeled bispecific EGFR-cMet antibody for binding to an acceptor fluorophore (Cy5)-labeled EGFR antigen. Excitation of the donor fluorophore results in a transfer of energy to the bound acceptor fluorophore (FRET process). The resultant FRET is detected by emission of light at 665 nm using a microplate reader capable of measuring time-resolved fluorescence. Sample dose response curves are compared to the RM.
(§2) EGFR Binding Materials and Methods. Certified commercial EGFR, a recombinant human EGFR/ErbB1/HER1 with C-terminal His tag is reacted with certified commercial Cy5 Mono NHS Ester to produce Cy5-labeled EGFR. Validated bispecific EGFR-cMet antibody is reacted with certified commercial Europium (Eu) chelate to produce Eu-labeled bispecific EGFR-cMet antibody. […] Fluorescence is then measured by spectrophotometry at 665 nm, plotted against antibody concentration and analyzed by a four-parameter logistic model. The antibody concentration required to obtain half of the maximum fluorescence response (EC50) is determined for RM, assay control and samples. The potencies of assay control and samples are calculated based on the ratio of the sample (or control) and RM EC50 values and reported as a percentage activity relative to the RM.

[2] = target: T2, recombinant cMet/HGFR with c-terminal His-tag, Cy5-labeled (UniProt P08581 25-932, limits assumed, Cy5 label (reacted with Cy5 Mono NHS Ester; sites not stated)); test: competitive TR-FRET (Eu-amivantamab/Cy5-c-MET), EC50 ratio vs Reference Material; Ex. 2 Formulation 1 (10 mM histidine), 3 months at 25 C
T2 construct: Commercial protein; also called Cy5-c-MET; Cy5-labeled c-MET antigen; not shown: C-terminal His-tag
Description: as §1, with “(Cy5)-labeled c-MET” for “(Cy5)-labeled EGFR”, “the Reference Material (RM).” for “the RM.”
as §2, with “c-MET Binding” for “EGFR Binding”, “commercial cMet,” for “commercial EGFR,”, “recombinant cMet/HGFR” for “recombinant human EGFR/ErbB1/HER1”, “with c-terminal His-tag” for “with C-terminal His tag”, “Cy5-labeled c-MET.” for “Cy5-labeled EGFR.”, “produce Eu labeled” for “produce Eu-labeled”

[3] = target: T1, recombinant human EGFR/ErbB1/HER1 with …; test: competitive TR-FRET (Eu-amivantamab/Cy5-EGFR), EC50 ratio vs Reference Material; Ex. 2 Formulation 1 (10 mM histidine), 3 months at 40 C
Description: as §1, §2

[4] = target: T2, recombinant cMet/HGFR with c-terminal …; test: competitive TR-FRET (Eu-amivantamab/Cy5-c-MET), EC50 ratio vs Reference Material; Ex. 2 Formulation 1 (10 mM histidine), 3 months at 40 C
Description: as §1, with “(Cy5)-labeled c-MET” for “(Cy5)-labeled EGFR”, “the Reference Material (RM).” for “the RM.”
as §2, with “c-MET Binding” for “EGFR Binding”, “commercial cMet,” for “commercial EGFR,”, “recombinant cMet/HGFR” for “recombinant human EGFR/ErbB1/HER1”, “with c-terminal His-tag” for “with C-terminal His tag”, “Cy5-labeled c-MET.” for “Cy5-labeled EGFR.”, “produce Eu labeled” for “produce Eu-labeled”

[5] = target: T1, recombinant human EGFR/ErbB1/HER1 with …; test: competitive TR-FRET (Eu-amivantamab/Cy5-EGFR), EC50 ratio vs Reference Material; Ex. 2 Formulation 2 (50 mM histidine), T0, 40 C table
Description: as §1, §2

[6] = target: T2, recombinant cMet/HGFR with c-terminal …; test: competitive TR-FRET (Eu-amivantamab/Cy5-c-MET), EC50 ratio vs Reference Material; Ex. 12 drug product with rHuPH20, 0 months, 25 C table
Description: as §1, with “(Cy5)-labeled c-MET” for “(Cy5)-labeled EGFR”, “the Reference Material (RM).” for “the RM.”
as §2, with “c-MET Binding” for “EGFR Binding”, “commercial cMet,” for “commercial EGFR,”, “recombinant cMet/HGFR” for “recombinant human EGFR/ErbB1/HER1”, “with c-terminal His-tag” for “with C-terminal His tag”, “Cy5-labeled c-MET.” for “Cy5-labeled EGFR.”, “produce Eu labeled” for “produce Eu-labeled”

[7] = target: T1, recombinant human EGFR/ErbB1/HER1 with …; test: competitive TR-FRET (Eu-amivantamab/Cy5-EGFR), EC50 ratio vs Reference Material; Ex. 12 drug product with rHuPH20, 12 months at 5 C
Description: as §1, §2

[8] = target: T2, recombinant cMet/HGFR with c-terminal …; test: competitive TR-FRET (Eu-amivantamab/Cy5-c-MET), EC50 ratio vs Reference Material; Ex. 2 Formulation 3 (acetate), T0, 40 C table
Description: as §1, with “(Cy5)-labeled c-MET” for “(Cy5)-labeled EGFR”, “the Reference Material (RM).” for “the RM.”
as §2, with “c-MET Binding” for “EGFR Binding”, “commercial cMet,” for “commercial EGFR,”, “recombinant cMet/HGFR” for “recombinant human EGFR/ErbB1/HER1”, “with c-terminal His-tag” for “with C-terminal His tag”, “Cy5-labeled c-MET.” for “Cy5-labeled EGFR.”, “produce Eu labeled” for “produce Eu-labeled”

EGFR Binding activity relative to Reference Material (%) [1]: 57%
cMET Binding % activity relative to RM [2]: 94%
EGFR Binding % activity relative to RM [3]: 41%
cMET Binding % activity relative to RM [4]: 67%
EGFR Binding % activity relative to RM [5]: 103%
cMET Binding activity relative to Reference Material (%) [6]: 91%
EGFR Binding activity relative to Reference Material (%) [7]: 94%
cMET Binding % activity relative to RM [8]: 94%
B1: amivantamab (bispecific antibody, human IgG1, kappa)
heavy 1: not shown
light 1: not shown
heavy 2: not shown
light 2: DIQMTQSPSSVSASVGDRVTITCRASQGISNWLAWFQHKPGKAPKLLIYAASSLLSGVPSRFSGSGSGTDFTLTISSLQPEDFATYYCQQANSFPITFGQGTRLEIKRTVAAPSVFIFPPSDEQLKSGTASVVCLLNNFYPREAKVQWKVDNALQSGNSQESVTEQDSKDSTYSLSSTLTLSKADYEKHKVYACEVTHQGLSSPVTKSFNRGEC
notes: The samples tested were high concentration (160 mg/mL) formulations, fresh or stored or stressed; also called JNJ-61186372; bispecific EGFR-cMet antibody
